Reference: patent US20250281556A1, “PRODUCTION OF RNA POLYNUCLEOTIDES ENCODING PICORNAVIRUS” (priority 2022, published 2025)

B1: ENV27-V3: ENV27 ribozyme variant, DNA SEQ ID NO: 133, TTTATT and GAAA inserted into P3 stem insert (nucleic acid)
DNA: ACTCGTTTGAGCGAGTATAAACAGTTTATTAGGCTCAAAGCGGAGAGCAGAGAAATCTGCTCTCG
modifications: expressed or natural sequence
B2: ENV27-V4: ENV27 ribozyme variant, DNA SEQ ID NO: 134, TTTATT and ACGAGAAATCGT inserted into P3 stem insert (nucleic acid)
DNA: ACTCGTTTGAGCGAGTATAAACAGTTTATTAGGCTCAAAGCGGAGAGCAGAACGAGAAATCGTTCTGCTCTCG
modifications: expressed or natural sequence
B3: ENV27-V2: ENV27 ribozyme variant, DNA SEQ ID NO: 132, P2 motif TTTATT; tested with L1 leader sequence (nucleic acid)
DNA: ACTCGTTTGAGCGAGTATAAACAGTTTATTAGGCTCAAAGCGGAGAGCAGATCTGCTCTCG
modifications: expressed or natural sequence
B4: ENT27-WT: ENV27 ribozyme, corresponding DNA sequence SEQ ID NO: 130, P2 motif TTGGTT (nucleic acid)
DNA: ACTCGTTTGAGCGAGTATAAACAGTTGGTTAGGCTCAAAGCGGAGAGCAGATCTGCTCTCGTCCAA
modifications: further chemistry not given here

Key:
[1] = tested on: ~260 nt segment of the 5′-end of the viral genome sequence (virus start); assay: Ribozyme cleavage efficiency, test construct with longer ~260 nt virus start; format: biochemical, CVA21; details: gel electrophoresis
Method: (§1) Experiments were performed to optimize the ribozyme sequence at the 5′ junctional cleavage sequence region of the in vitro transcription template for CVA21 viral genome based on the test construct design according to FIG. 10B. Initially, a short, about 60 nt segment(S) of the 5′-end of the viral genome (“virus start”) was used to identify ribozymes that yielded high cleavage efficiency. […] Specifically, for an initial candidate ribozyme that yielded >90% cleavage efficiency in the test construct with short ˜60 nt virus start, it yielded only about 10-35% cleavage efficiency upon incorporation of the expression construct for the full-length viral genome. […] Thus, the test construct was redesigned to include a longer, about 260 nt segment (L) of the 5′-end of the viral genome sequence. […] Therefore, the test construct “L” with longer virus start better recapitulates the cleavage efficiency of the candidate ribozyme when incorporated into the full-length viral genome.
Further optimization was performed in the DNA template encoding ENT27 ribozyme, including: • Replacing the P2 motif “TTGGTT” of ENT27-WT with “TTTGTT” (ENT27-V1) or “TTTATT” (ENT27-V2, ENT27-V3, ENT27-V4) to complement the 5′ end of the viral start “UUAAA” after ribozyme cleavage. • Inserting additional nucleotides “GAAA” (ENT27-V3) or “ACGAGAAATCGT” (ENT27-V4) into the P3 stem insert of the ENT27 ribozyme. These optimizations are illustrated in FIG. 11A and FIG. 11B.
The cleavage efficiencies of these optimized ENT27 ribyzomes were analyzed using the test constructs with longer ˜260 nt virus start. The leader sequence used in these constructs include L1 (SEQ ID NO: 135) and L2 (SEQ ID NO: 136).

[2] = tested on: full-length CVA21 viral genome RNA; assay: Ribozyme cleavage efficiency in the full-length CVA21 viral genome expression construct; format: biochemical; details: L1 leader sequence, RT-dPCR and RNA digest methods, vs control vector CVA21v1
Method: as §1
ENV27-V2 ribozyme and L1 leader sequence was then incorporated into the CVA21 viral genome expression construct and tested for cleavage efficiency using both RT-dPCR and RNA digest methods.

Molecule | cleavage efficiency [1] | cleavage efficiency [2]
B1 | improved the cleavage efficiency | –
B2 | improved the cleavage efficiency | –
B3 | much better cleavage efficiency | > 90%
B4 | promising candidate | –
